{"source": "paper PMC6906086", "key": {"Lsr2BD WT": {"target": "Lsr2BD WT (Mycobacterium tuberculosis H37Rv, UniProt P9WIP7 66-112)", "experiment": "fluorescence anisotropy", "details": "protein: recombinant; tags: 6xHis; blunt"}, "Lsr2BD T112D": {"target": "Lsr2BD T112D (Mycobacterium tuberculosis H37Rv, UniProt P9WIP7 66-112, T112D)", "experiment": "fluorescence anisotropy", "details": "protein: recombinant, blunt"}, "Lsr2BD T112A": {"target": "Lsr2BD T112A (Mycobacterium tuberculosis H37Rv, UniProt P9WIP7 66-112, T112A)", "experiment": "fluorescence anisotropy; pH 7.5; 4 nM DNA", "details": "protein: recombinant; label: 5' Alexa Fluor 488; blunt"}, "Lsr2": {"target": "Lsr2 (Mycobacterium tuberculosis H37Rv, UniProt P9WIP7 1-112)", "experiment": "EMSA; 0.95-7.6 uM Lsr2", "details": "protein: recombinant; (pET15-TEV, Ni-NTA); chain copies: 2; blunt"}}, "data": [{"binder": "GC-rich fragment (leuS MUT sequence), anisotropy (dsDNA) DNA 1: AACTCGGCGAGGTCGGTCAG DNA 2: CTGACCGACCTCGCCGAGTT", "values": [{"measurement": "binding result", "setting": "Lsr2BD WT", "value": "no binding"}, {"measurement": "binding result", "setting": "Lsr2BD T112D", "value": "no binding"}]}, {"binder": "AT-rich 14-mer (dsDNA) DNA 1: CGCGCATATATGCG DNA 2: CGCATATATGCGCG", "values": [{"measurement": "binding result", "setting": "Lsr2BD T112D; label: 5' Alexa Fluor 488", "value": "no binding"}, {"measurement": "Kd", "setting": "Lsr2BD T112A", "value": "20 ± 8", "unit": "nM"}]}, {"binder": "leuS MUT (dsDNA) DNA 1: AACTCGGCGAGGTCGGTCAG DNA 2: CTGACCGACCTCGCCGAGTT", "values": [{"measurement": "binding result", "setting": "Lsr2", "value": "binds"}]}]}
